Measured values from patent publication US20190309059A1 (SHANGHAI PHARMAEXPLORER, published 2019).
Values joined by “and” are separate entries in the source; they are usually repeats but may differ in a detail not shown here. Equal entries are not always repeated.

Experiments:
[1] = biological target: his-labeled human IL-13 (immunogen A) (human) (UniProt P35225); experiment: FACS blocking, biotin-IL-13 on IL-13Ra1/IL-4Ra HEK293 cells; antibody at 6.67 nM
[2] = biological target: his-labeled human IL-13 (immunogen A) (human) (UniProt P35225); experiment: FACS blocking, biotin-IL-13 on IL-13Ra1/IL-4Ra HEK293 cells; antibody at 166.67 nM
[3] = biological target: his-labeled human IL-13 (immunogen A) (human) (UniProt P35225); experiment: FACS blocking, biotin-IL-13 on IL-13Ra2 HEK293 cells; antibody at 166.67 nM
[4] = biological target: cynomolgus IL-13 (purchased from sino biological) (cynomolgus) (UniProt Q0PW92); experiment: ELISA, cynomolgus IL-13; antibody at 0.53 nM
Chain of cynomolgus IL-13 (purchased from sino biological) (cynomolgus) (Q0PW92 entry or part of it): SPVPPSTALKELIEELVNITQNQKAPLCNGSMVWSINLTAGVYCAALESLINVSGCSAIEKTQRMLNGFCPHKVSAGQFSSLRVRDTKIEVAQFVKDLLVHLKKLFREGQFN

[5] = biological target: his-labeled human IL-13 (immunogen A) (human) (UniProt P35225); experiment: cell-based or functional assay
[6] = biological target: his-labeled human IL-13 (immunogen A) (human) (UniProt P35225); experiment: FACS blocking, biotin-IL-13 on IL-13Ra2 HEK293 cells; antibody at 0.002 nM
[7] = biological target: cynomolgus IL-13 (purchased from sino biological) (cynomolgus) (UniProt Q0PW92); experiment: ELISA, cynomolgus IL-13; antibody at 2.67 nM
[8] = biological target: his-labeled human IL-13 (immunogen A) (human) (UniProt P35225); experiment: FACS blocking, biotin-IL-13 on IL-13Ra1/IL-4Ra HEK293 cells; antibody at 0.01 nM
[9] = biological target: his-labeled human IL-13 (immunogen A) (human) (UniProt P35225); experiment: FACS blocking, biotin-IL-13 on IL-13Ra2 HEK293 cells; antibody at 6.67 nM
[10] = biological target: his-labeled human IL-13 (immunogen A) (human) (UniProt P35225); experiment: ELISA, biotin-immunogen A; antibody at 0.11 nM
[11] = biological target: cynomolgus IL-13 (purchased from sino biological) (cynomolgus) (UniProt Q0PW92); experiment: ELISA, cynomolgus IL-13; antibody at 0.021 nM
[12] = biological target: cynomolgus IL-13 (purchased from sino biological) (cynomolgus) (UniProt Q0PW92); experiment: ELISA, cynomolgus IL-13; antibody at 0.11 nM
[13] = biological target: his-labeled human IL-13 (immunogen A) (human) (UniProt P35225); experiment: ELISA, biotin-immunogen A; antibody at 0.000 nM
[14] = biological target: his-labeled human IL-13 (immunogen A) (human) (UniProt P35225); experiment: FACS blocking, biotin-IL-13 on IL-13Ra1/IL-4Ra HEK293 cells; antibody at 0.27 nM
[15] = biological target: his-labeled human IL-13 (immunogen A) (human) (UniProt P35225); experiment: FACS blocking, biotin-IL-13 on IL-13Ra2 HEK293 cells; antibody at 0.27 nM
[16] = biological target: his-labeled human IL-13 (immunogen A) (human) (UniProt P35225); experiment: FACS blocking, biotin-IL-13 on IL-13Ra2 HEK293 cells; antibody at 33.33 nM
[17] = biological target: cynomolgus IL-13 (purchased from sino biological) (cynomolgus) (UniProt Q0PW92); experiment: ELISA, cynomolgus IL-13; antibody at 13.3 nM
[18] = biological target: his-labeled human IL-13 (immunogen A) (human) (UniProt P35225); experiment: FACS blocking, biotin-IL-13 on IL-13Ra1/IL-4Ra HEK293 cells; antibody at 0.05 nM
[19] = biological target: his-labeled human IL-13 (immunogen A) (human) (UniProt P35225); experiment: FACS blocking, biotin-IL-13 on IL-13Ra2 HEK293 cells; antibody at 0.05 nM
[20] = biological target: his-labeled human IL-13 (immunogen A) (human) (UniProt P35225); experiment: FACS blocking, biotin-IL-13 on IL-13Ra1/IL-4Ra HEK293 cells; antibody at 0.002 nM
[21] = biological target: his-labeled human IL-13 (immunogen A) (human) (UniProt P35225); experiment: FACS blocking, biotin-IL-13 on IL-13Ra1/IL-4Ra HEK293 cells; antibody at 33.33 nM
[22] = biological target: his-labeled human IL-13 (immunogen A) (human) (UniProt P35225); experiment: FACS blocking, biotin-IL-13 on IL-13Ra2 HEK293 cells; antibody at 1.33 nM
[23] = biological target: his-labeled human IL-13R130Q variant (human) (UniProt P35225); experiment: ELISA, IL-13R130Q variant; antibody at 0.004 nM
Chain of his-labeled human IL-13R130Q variant (human) (P35225 other isoform, or with tags, fused parts or gaps mutant): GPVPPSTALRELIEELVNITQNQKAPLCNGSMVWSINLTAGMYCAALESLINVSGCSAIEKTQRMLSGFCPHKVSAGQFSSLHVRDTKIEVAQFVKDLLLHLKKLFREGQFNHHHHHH

[24] = biological target: his-labeled human IL-13 (immunogen A) (human) (UniProt P35225); experiment: FACS blocking, biotin-IL-13 on IL-13Ra2 HEK293 cells; antibody at 0.01 nM
[25] = biological target: cynomolgus IL-13 (purchased from sino biological) (cynomolgus) (UniProt Q0PW92); experiment: ELISA, cynomolgus IL-13; antibody at 0.004 nM
[26] = biological target: his-labeled human IL-13 (immunogen A) (human) (UniProt P35225); experiment: FACS blocking, biotin-IL-13 on IL-13Ra1/IL-4Ra HEK293 cells; antibody at 1.33 nM
[27] = biological target: his-labeled human IL-13R130Q variant (human) (UniProt P35225); experiment: ELISA, IL-13R130Q variant; antibody at 0.11 nM

mean fluorescence intensity [1]: 27.7 | mean fluorescence intensity [2]: 17.1 | mean fluorescence intensity [3]: 77 | OD450 nm [4]: 0.09 | Periostin (pg/mL), MRCS cells + IL-13 5 ng/mL; control antibody at 0.0002 nM [5]: 6350 pg/mL | Periostin (pg/mL), MRCS cells + IL-13 5 ng/mL; control antibody at 0.001 nM [5]: 4760 pg/mL | Periostin (pg/mL), MRCS cells + IL-13 5 ng/mL; control antibody at 0.004 nM [5]: 4290 pg/mL | Periostin (pg/mL), MRCS cells + IL-13 5 ng/mL; control antibody at 0.021 nM [5]: 4010 pg/mL | Periostin (pg/mL), MRCS cells + IL-13 5 ng/mL; control antibody at 0.11 nM [5]: 3830 pg/mL | Periostin (pg/mL), MRCS cells + IL-13 5 ng/mL; control antibody at 0.53 nM [5]: 4920 pg/mL | Periostin (pg/mL), MRCS cells + IL-13 5 ng/mL; control antibody at 2.67 nM [5]: 5740 pg/mL | Periostin (pg/mL), MRCS cells + IL-13 5 ng/mL; control antibody at 13.3 nM [5]: 6240 pg/mL | TARC (pg/mL), A549 cells + IL-13 5 ng/mL + TNFα; control antibody at 0.001 nM [5]: 2010 pg/mL | TARC (pg/mL), A549 cells + IL-13 5 ng/mL + TNFα; control antibody at 0.004 nM [5]: 1720 pg/mL | TARC (pg/mL), A549 cells + IL-13 5 ng/mL + TNFα; control antibody at 0.021 nM [5]: 1740 pg/mL | TARC (pg/mL), A549 cells + IL-13 5 ng/mL + TNFα; control antibody at 0.11 nM [5]: 1650 pg/mL | TARC (pg/mL), A549 cells + IL-13 5 ng/mL + TNFα; control antibody at 0.5 nM [5]: 1640 pg/mL | TARC (pg/mL), A549 cells + IL-13 5 ng/mL + TNFα; control antibody at 2.7 nM [5]: 1720 pg/mL | TARC (pg/mL), A549 cells + IL-13 5 ng/mL + TNFα; control antibody at 13.3 nM [5]: 1800 pg/mL | TARC (pg/mL), A549 cells + IL-13 5 ng/mL + TNFα; control antibody at 66.7 nM [5]: 1870 pg/mL | TARC (pg/mL), A549 cells + IL-13 + TNFα; control antibody at 0.001 nM [5]: 3120 pg/mL | TARC (pg/mL), A549 cells + IL-13 + TNFα; control antibody at 0.001 nM (part 2, with hP4 4H12) [5]: 2920 pg/mL | TARC (pg/mL), A549 cells + IL-13 + TNFα; control antibody at 0.004 nM [5]: 2980 pg/mL | TARC (pg/mL), A549 cells + IL-13 + TNFα; control antibody at 0.004 nM (part 2, with hP4 4H12) [5]: 2560 pg/mL | TARC (pg/mL), A549 cells + IL-13 + TNFα; control antibody at 0.021 nM [5]: 3000 pg/mL | TARC (pg/mL), A549 cells + IL-13 + TNFα; control antibody at 0.021 nM (part 2, with hP4 4H12) [5]: 2580 pg/mL | TARC (pg/mL), A549 cells + IL-13 + TNFα; control antibody at 0.11 nM [5]: 2780 pg/mL | TARC (pg/mL), A549 cells + IL-13 + TNFα; control antibody at 0.11 nM (part 2, with hP4 4H12) [5]: 2570 pg/mL | TARC (pg/mL), A549 cells + IL-13 + TNFα; control antibody at 0.5 nM (part 2, with hP4 4H12) [5]: 2580 pg/mL | TARC (pg/mL), A549 cells + IL-13 + TNFα; control antibody at 0.53 nM [5]: 2840 pg/mL | TARC (pg/mL), A549 cells + IL-13 + TNFα; control antibody at 2.67 nM [5]: 2720 pg/mL | TARC (pg/mL), A549 cells + IL-13 + TNFα; control antibody at 2.7 nM (part 2, with hP4 4H12) [5]: 2790 pg/mL | TARC (pg/mL), A549 cells + IL-13 + TNFα; control antibody at 13.3 nM [5]: 2820 pg/mL | TARC (pg/mL), A549 cells + IL-13 + TNFα; control antibody at 13.3 nM (part 2, with hP4 4H12) [5]: 2870 pg/mL | TARC (pg/mL), A549 cells + IL-13 + TNFα; control antibody at 66.7 nM [5]: 2700 pg/mL | TARC (pg/mL), A549 cells + IL-13 + TNFα; control antibody at 66.7 nM (part 2, with hP4 4H12) [5]: 2920 pg/mL | VCAM-1 fluorescence intensity, HUVEC + IL-13 0.5 ng/mL + TNFα; control antibody at 0.0002 nM [5]: 347 | VCAM-1 fluorescence intensity, HUVEC + IL-13 0.5 ng/mL + TNFα; control antibody at 0.001 nM [5]: 369 | VCAM-1 fluorescence intensity, HUVEC + IL-13 0.5 ng/mL + TNFα; control antibody at 0.004 nM [5]: 373 | VCAM-1 fluorescence intensity, HUVEC + IL-13 0.5 ng/mL + TNFα; control antibody at 0.021 nM [5]: 369 | VCAM-1 fluorescence intensity, HUVEC + IL-13 0.5 ng/mL + TNFα; control antibody at 0.11 nM [5]: 340 | VCAM-1 fluorescence intensity, HUVEC + IL-13 0.5 ng/mL + TNFα; control antibody at 0.53 nM [5]: 302 | VCAM-1 fluorescence intensity, HUVEC + IL-13 0.5 ng/mL + TNFα; control antibody at 2.67 nM [5]: 354 | VCAM-1 fluorescence intensity, HUVEC + IL-13 0.5 ng/mL + TNFα; control antibody at 13.3 nM [5]: 341 | mean fluorescence intensity [6]: 79.3 | OD450 nm [7]: 0.06 | mean fluorescence intensity [8]: 72.4 | mean fluorescence intensity [9]: 77.2 | OD450 nm [10]: 0.07 and 0.05 | OD450 nm [11]: 0.07 | OD450 nm [12]: 0.07 | OD450 nm [13]: 0.05 | mean fluorescence intensity [14]: 67.9 | mean fluorescence intensity [15]: 78.9 | mean fluorescence intensity [16]: 82.7 | OD450 nm [17]: 0.1 | mean fluorescence intensity [18]: 68.9 | mean fluorescence intensity [19]: 81.3 | mean fluorescence intensity [20]: 72 | mean fluorescence intensity [21]: 22.1 | mean fluorescence intensity [22]: 80.7 | OD450 nm [23]: 0.07 | mean fluorescence intensity [24]: 83.2 | OD450 nm [25]: 0.07 | mean fluorescence intensity [26]: 37.5 | OD450 nm [27]: 0.06
Substance: IgG control (mouse IgG) (antibody)
